# Measured values: PMC3691886
# Tests used:
# [1] = target: bovine α-chymotrypsin (bovine)
# [2] = target: bovine α-chymotrypsin (bovine); experiment: enzyme inhibition progress curves; pseudo-first-order conditions, 4 h at 25°C, 5-600 nM inhibitor, 200 μM substrate, 0.5 nM bovine α-chymotrypsin
# [3] = target: recombinant α1-antitrypsin, M allele with the C232S mutation (AT_(C232S)) (UniProt P01009); experiment: FRET or BRET; heat-induced polymerization at 55°C; 0.1 mg/ml protein in 10 mM Na2HPO4/NaH2PO4, 0.1 M NaCl, 0.1% PEG8K, pH 7.4; 2-8 μM ATTO-550-Ni-NTA and ATTO-647N-Ni-NTA on the His tag; apparent rate, corrected to zero dye; monomer to polymer
# [4] = target: recombinant α1-antitrypsin, M allele with the C232S mutation (AT_(C232S)) (UniProt P01009); experiment: FRET or BRET; heat-induced polymerization at 50°C; 0.1 mg/ml protein in 10 mM Na2HPO4/NaH2PO4, 0.1 M NaCl, 0.1% PEG8K, pH 7.4; 2-8 μM ATTO-550-Ni-NTA and ATTO-647N-Ni-NTA on the His tag; apparent rate, corrected to zero dye; monomer to polymer
# [5] = target: recombinant α1-antitrypsin, M allele with the C232S mutation (AT_(C232S)) (UniProt P01009); experiment: FRET or BRET; heat-induced polymerization at 60°C; 0.1 mg/ml protein in 10 mM Na2HPO4/NaH2PO4, 0.1 M NaCl, 0.1% PEG8K, pH 7.4; 2-8 μM ATTO-550-Ni-NTA and ATTO-647N-Ni-NTA on the His tag; apparent rate, corrected to zero dye; monomer to polymer
# [6] = target: α1-antitrypsin reactive loop mutant P2P1′ (P357D, S359D) on the C232S background (UniProt P01009); experiment: FRET or BRET; heat-induced polymerization at 55°C; 0.1 mg/ml protein in 10 mM Na2HPO4/NaH2PO4, 0.1 M NaCl, 0.1% PEG8K, pH 7.4; 2-8 μM ATTO-550-Ni-NTA and ATTO-647N-Ni-NTA on the His tag; apparent rate, corrected to zero dye; monomer to polymer
# [7] = target: α1-antitrypsin reactive loop mutant P2P1′ (P357D, S359D) on the C232S background (UniProt P01009); experiment: FRET or BRET; heat-induced polymerization at 50°C; 0.1 mg/ml protein in 10 mM Na2HPO4/NaH2PO4, 0.1 M NaCl, 0.1% PEG8K, pH 7.4; 2-8 μM ATTO-550-Ni-NTA and ATTO-647N-Ni-NTA on the His tag; apparent rate, corrected to zero dye; monomer to polymer
# [8] = target: α1-antitrypsin reactive loop mutant P2P1′ (P357D, S359D) on the C232S background (UniProt P01009); experiment: FRET or BRET; heat-induced polymerization at 60°C; 0.1 mg/ml protein in 10 mM Na2HPO4/NaH2PO4, 0.1 M NaCl, 0.1% PEG8K, pH 7.4; 2-8 μM ATTO-550-Ni-NTA and ATTO-647N-Ni-NTA on the His tag; apparent rate, corrected to zero dye; monomer to polymer
# [9] = target: α1-antitrypsin reactive loop mutant P4 (A355D) on the C232S background (UniProt P01009); experiment: FRET or BRET; heat-induced polymerization at 55°C; 0.1 mg/ml protein in 10 mM Na2HPO4/NaH2PO4, 0.1 M NaCl, 0.1% PEG8K, pH 7.4; 2-8 μM ATTO-550-Ni-NTA and ATTO-647N-Ni-NTA on the His tag; apparent rate, corrected to zero dye; monomer to polymer
# [10] = target: α1-antitrypsin reactive loop mutant P4 (A355D) on the C232S background (UniProt P01009); experiment: FRET or BRET; heat-induced polymerization at 50°C; 0.1 mg/ml protein in 10 mM Na2HPO4/NaH2PO4, 0.1 M NaCl, 0.1% PEG8K, pH 7.4; 2-8 μM ATTO-550-Ni-NTA and ATTO-647N-Ni-NTA on the His tag; apparent rate, corrected to zero dye; monomer to polymer
# [11] = target: α1-antitrypsin reactive loop mutant P4 (A355D) on the C232S background (UniProt P01009); experiment: FRET or BRET; heat-induced polymerization at 60°C; 0.1 mg/ml protein in 10 mM Na2HPO4/NaH2PO4, 0.1 M NaCl, 0.1% PEG8K, pH 7.4; 2-8 μM ATTO-550-Ni-NTA and ATTO-647N-Ni-NTA on the His tag; apparent rate, corrected to zero dye; monomer to polymer
# [12] = target: α1-antitrypsin reactive loop mutant P6 (L353D) on the C232S background (UniProt P01009); experiment: FRET or BRET; heat-induced polymerization at 55°C; 0.1 mg/ml protein in 10 mM Na2HPO4/NaH2PO4, 0.1 M NaCl, 0.1% PEG8K, pH 7.4; 2-8 μM ATTO-550-Ni-NTA and ATTO-647N-Ni-NTA on the His tag; apparent rate, corrected to zero dye; monomer to polymer
# [13] = target: α1-antitrypsin reactive loop mutant P6 (L353D) on the C232S background (UniProt P01009); experiment: FRET or BRET; heat-induced polymerization at 50°C; 0.1 mg/ml protein in 10 mM Na2HPO4/NaH2PO4, 0.1 M NaCl, 0.1% PEG8K, pH 7.4; 2-8 μM ATTO-550-Ni-NTA and ATTO-647N-Ni-NTA on the His tag; apparent rate, corrected to zero dye; monomer to polymer
# [14] = target: α1-antitrypsin reactive loop mutant P6 (L353D) on the C232S background (UniProt P01009); experiment: FRET or BRET; heat-induced polymerization at 60°C; 0.1 mg/ml protein in 10 mM Na2HPO4/NaH2PO4, 0.1 M NaCl, 0.1% PEG8K, pH 7.4; 2-8 μM ATTO-550-Ni-NTA and ATTO-647N-Ni-NTA on the His tag; apparent rate, corrected to zero dye; monomer to polymer
# [15] = target: α1-antitrypsin reactive loop mutant P6P4 (L353D, A355D) on the C232S background (UniProt P01009); experiment: FRET or BRET; heat-induced polymerization at 55°C; 0.1 mg/ml protein in 10 mM Na2HPO4/NaH2PO4, 0.1 M NaCl, 0.1% PEG8K, pH 7.4; 2-8 μM ATTO-550-Ni-NTA and ATTO-647N-Ni-NTA on the His tag; apparent rate, corrected to zero dye; monomer to polymer
# [16] = target: α1-antitrypsin reactive loop mutant P6P4 (L353D, A355D) on the C232S background (UniProt P01009); experiment: FRET or BRET; heat-induced polymerization at 50°C; 0.1 mg/ml protein in 10 mM Na2HPO4/NaH2PO4, 0.1 M NaCl, 0.1% PEG8K, pH 7.4; 2-8 μM ATTO-550-Ni-NTA and ATTO-647N-Ni-NTA on the His tag; apparent rate, corrected to zero dye; monomer to polymer
# [17] = target: α1-antitrypsin reactive loop mutant P6P4 (L353D, A355D) on the C232S background (UniProt P01009); experiment: FRET or BRET; heat-induced polymerization at 60°C; 0.1 mg/ml protein in 10 mM Na2HPO4/NaH2PO4, 0.1 M NaCl, 0.1% PEG8K, pH 7.4; 2-8 μM ATTO-550-Ni-NTA and ATTO-647N-Ni-NTA on the His tag; apparent rate, corrected to zero dye; monomer to polymer
# [18] = target: α1-antitrypsin reactive loop mutant P10P8 (G349D, M351D) on the C232S background (UniProt P01009); experiment: FRET or BRET; heat-induced polymerization at 55°C; 0.1 mg/ml protein in 10 mM Na2HPO4/NaH2PO4, 0.1 M NaCl, 0.1% PEG8K, pH 7.4; 2-8 μM ATTO-550-Ni-NTA and ATTO-647N-Ni-NTA on the His tag; apparent rate, corrected to zero dye; monomer to polymer
# [19] = target: α1-antitrypsin reactive loop mutant P10P8 (G349D, M351D) on the C232S background (UniProt P01009); experiment: FRET or BRET; heat-induced polymerization at 50°C; 0.1 mg/ml protein in 10 mM Na2HPO4/NaH2PO4, 0.1 M NaCl, 0.1% PEG8K, pH 7.4; 2-8 μM ATTO-550-Ni-NTA and ATTO-647N-Ni-NTA on the His tag; apparent rate, corrected to zero dye; monomer to polymer
# [20] = target: α1-antitrypsin reactive loop mutant P10P8 (G349D, M351D) on the C232S background (UniProt P01009); experiment: FRET or BRET; heat-induced polymerization at 60°C; 0.1 mg/ml protein in 10 mM Na2HPO4/NaH2PO4, 0.1 M NaCl, 0.1% PEG8K, pH 7.4; 2-8 μM ATTO-550-Ni-NTA and ATTO-647N-Ni-NTA on the His tag; apparent rate, corrected to zero dye; monomer to polymer
# [21] = target: α1-antitrypsin reactive loop mutant P14P12 (T345D, A347D) on the C232S background (UniProt P01009); experiment: FRET or BRET; heat-induced polymerization at 55°C; 0.1 mg/ml protein in 10 mM Na2HPO4/NaH2PO4, 0.1 M NaCl, 0.1% PEG8K, pH 7.4; 2-8 μM ATTO-550-Ni-NTA and ATTO-647N-Ni-NTA on the His tag; apparent rate, corrected to zero dye; monomer to polymer
# [22] = target: α1-antitrypsin reactive loop mutant P14P12 (T345D, A347D) on the C232S background (UniProt P01009); experiment: FRET or BRET; heat-induced polymerization at 50°C; 0.1 mg/ml protein in 10 mM Na2HPO4/NaH2PO4, 0.1 M NaCl, 0.1% PEG8K, pH 7.4; 2-8 μM ATTO-550-Ni-NTA and ATTO-647N-Ni-NTA on the His tag; apparent rate, corrected to zero dye; monomer to polymer
# [23] = target: α1-antitrypsin reactive loop mutant P14P12 (T345D, A347D) on the C232S background (UniProt P01009); experiment: FRET or BRET; heat-induced polymerization at 60°C; 0.1 mg/ml protein in 10 mM Na2HPO4/NaH2PO4, 0.1 M NaCl, 0.1% PEG8K, pH 7.4; 2-8 μM ATTO-550-Ni-NTA and ATTO-647N-Ni-NTA on the His tag; apparent rate, corrected to zero dye; monomer to polymer
substance,measurement,setting,value
"recombinant α1-antitrypsin, M allele with the C232S mutation (AT_(C232S)) (from UniProt P01009 26-418) (natural protein)",SI (stoichiometry of inhibition): residual activity of 0.5 μM bovine α-chymotrypsin after 30 min with inhibitor,[1],1.1
same,kass•SI,[2],1.5e+06
same,kon,[2],1.5e+06 M⁻¹ s⁻¹
same,"k (app,fr) (apparent rate of polymerization)",[3],0.0016 s⁻¹
same,"k (app,fr) (apparent rate of polymerization)",[4],0.00021 s⁻¹
same,"k (app,fr) (apparent rate of polymerization)",[5],0.01 s⁻¹
"α1-antitrypsin reactive loop mutant P2P1′ (P357D, S359D) on the C232S background (from UniProt P01009 26-418) (natural protein)",SI (stoichiometry of inhibition): residual activity of 0.5 μM bovine α-chymotrypsin after 30 min with inhibitor,[1],100
same,"k (app,fr) (apparent rate of polymerization)",[6],0.0017 s⁻¹
same,"k (app,fr) (apparent rate of polymerization)",[7],0.00022 s⁻¹
same,"k (app,fr) (apparent rate of polymerization)",[8],0.012 s⁻¹
α1-antitrypsin reactive loop mutant P4 (A355D) on the C232S background (from UniProt P01009 26-418) (natural protein),"k (app,fr) (apparent rate of polymerization)",[9],0.0011 s⁻¹
same,"k (app,fr) (apparent rate of polymerization)",[10],0.00011 s⁻¹
same,"k (app,fr) (apparent rate of polymerization)",[11],0.078 s⁻¹
α1-antitrypsin reactive loop mutant P6 (L353D) on the C232S background (from UniProt P01009 26-418) (natural protein),"k (app,fr) (apparent rate of polymerization)",[12],0.0007 s⁻¹
same,"k (app,fr) (apparent rate of polymerization)",[13],3.7e-05 s⁻¹
same,"k (app,fr) (apparent rate of polymerization)",[14],0.01 s⁻¹
"α1-antitrypsin reactive loop mutant P6P4 (L353D, A355D) on the C232S background (from UniProt P01009 26-418) (natural protein)",SI (stoichiometry of inhibition): residual activity of 0.5 μM bovine α-chymotrypsin after 30 min with inhibitor,[1],89
same,"k (app,fr) (apparent rate of polymerization)",[15],0.00044 s⁻¹
same,"k (app,fr) (apparent rate of polymerization)",[16],9.8e-06 s⁻¹
same,"k (app,fr) (apparent rate of polymerization)",[17],0.0055 s⁻¹
"α1-antitrypsin reactive loop mutant P10P8 (G349D, M351D) on the C232S background (from UniProt P01009 26-418) (natural protein)",SI (stoichiometry of inhibition): residual activity of 0.5 μM bovine α-chymotrypsin after 30 min with inhibitor,[1],4.56
same,kass•SI,[2],570000
same,kon,[2],120000 M⁻¹ s⁻¹
same,"k (app,fr) (apparent rate of polymerization)",[18],0.00066 s⁻¹
same,"k (app,fr) (apparent rate of polymerization)",[19],7.2e-05 s⁻¹
same,"k (app,fr) (apparent rate of polymerization)",[20],0.0028 s⁻¹
"α1-antitrypsin reactive loop mutant P14P12 (T345D, A347D) on the C232S background (from UniProt P01009 26-418) (natural protein)","k (app,fr) (apparent rate of polymerization)",[21],0.00043 s⁻¹
same,"k (app,fr) (apparent rate of polymerization)",[22],5.8e-05 s⁻¹
same,"k (app,fr) (apparent rate of polymerization)",[23],0.024 s⁻¹
